# According to patent US9205136B2, “Human aminoacyl-tRNA synthetase polypeptides useful for the regulation of angiogenesis” (THE SCRIPPS RESEARCH INSTITUTE, priority 2000, dated 2015):
# T1: type A IL-8 receptor (Homo sapiens, UniProt P25024)
# T1 construct: expressed in transfected cells; host or cells: RBL2H3 rat basophilic leukemia cells
# T1 sequence (P25024 1-350): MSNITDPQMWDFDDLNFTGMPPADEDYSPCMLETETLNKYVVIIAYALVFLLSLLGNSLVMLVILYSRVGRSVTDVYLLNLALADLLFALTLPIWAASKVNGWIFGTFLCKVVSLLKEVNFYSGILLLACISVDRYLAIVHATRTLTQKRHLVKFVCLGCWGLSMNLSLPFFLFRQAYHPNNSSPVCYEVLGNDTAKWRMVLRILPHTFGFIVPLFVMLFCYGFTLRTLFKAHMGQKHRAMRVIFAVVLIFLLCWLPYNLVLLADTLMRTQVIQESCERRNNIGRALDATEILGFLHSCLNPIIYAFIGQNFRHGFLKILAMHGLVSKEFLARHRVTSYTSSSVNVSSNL
# B1: mini TyrRS: truncated TyrRS, residues 1-364 of full-length TyrRS, amino-terminal catalytic domain (protein)
# chain: MGDAPSPEEKLHLITRNLQEVLGEEKLKEILKERELKIYWGTATTGKPHVAYFVPMSKIADFLKAGCEVTILFADLHAYLDNMKAPWELLELRVSYYENVIKAMLESIGVPLEKLKFIKGTDYQLSKEYTLDVYRLSSVVTQHDSKKAGAEVVKQVEHPLLSGLLYPGLQALDEEYLKVDAQFGGIDQRKIFTFAEKYLPALGYSKRVHLMNPMVPGLTGSKMSSSEEESKIDLLDRKEDVKKKLKKAFCEPGNVENNGVLSFIKHVLFPLKSEFVILRDEKWGGNKTYTAYVDLEKDFAAEVVHPGDLKNSVEVALNKLLDPIREKFNTPALKKLASAAYPDPSKQKPMAKGPAKNSEPEEVILEHHHHHH
# modifications: His6 tag; Human mini TyrRS in pET20B
# notes: truncated TyrRS, residues 1-364 of full-length TyrRS, amino-terminal catalytic domain
# What was measured:
# [1] = tested on: PMNs; test: PMN chemotaxis assay (ChemoTX microchemotaxis chamber); assay type: cell-based, human; conditions: for PMN chemotaxis (PMN migration): sample proteins 1 nM, 45 min
# How it was run: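 Human PMNs were isolated from healthy-donor blood over Histopaque 1077/1119. 10^4 cells were placed in the upper compartment of a ChemoTX microchemotaxis chamber, with sample protein at 1 nM in the lower compartment. After 45 min, migrated cells were counted as the mean of nine HPFs.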
# [2] = target: T1, type A IL-8 receptor; test: Binding to RBL2H3 cells transfected with IL-8 receptor type A; conditions: read-out: Kd on cells expressing the type A IL-8 receptor; transfected RBL2H3 rat basophilic leukemia cells
# Experimental: Following incubation, cells were separated from unbound radioactivity as described herein.
# Untransfected RBL2H3 cells express neither the type A nor type B receptors.
# [3] = tested on: human umbilical vein endothelial cells (HUVECs); test: HUVEC migration assay (modified Boyden chamber); assay type: cell-based; conditions: 50 nM TyrRS molecule or 0.5 nM VEGF165, 6 hours
# Experimental: In contrast, α-chemokines lacking the ELR motif act as angiostatic factors (id.). In order to evaluate the angiogenic activity of TyrRS, which contains the ELR motif, human full-length TyrRS and human mini TyrRS were first examined for their ability to induce endothelial cell migration. Such angiogenic assays were performed using human umbilical vein endothelial cells (HUVECs) (Clonetics, Walkersville, Md.). Cells were maintained in EGM-2® BULLETKIT® medium (Clonetics) in an atmosphere of 6% CO2 at 37° C. according to the supplier's instructions.
# Cell migration assays were performed using the modified Boyden chamber (6.5 mm Transwells) with polycarbonate membranes (8.0 μm pore size) (Costar Corp., Cambridge, Mass.) (Masood et al., 1999, Blood 93:1038-44). Wells were coated overnight with 25 μg/mL human fibronectin (Biosource International, Camarillo, Calif.) in PBS and then allowed to air-dry. HUVECs were suspended in Dulbecco's modified Eagle's medium (DMEM) (Gibco-BRL, Gaithersburg, Md.) containing 0.1% BSA (Sigma) and 2×10^5 cells per well were added to the upper chamber. The chemotactic stimulus (50 nM of a given TyrRS molecule or 0.5 nM of human vascular endothelial growth factor-165 (VEGF165) (Biosource International, Camarillo, Calif.)) was placed in the lower chamber, and the cells were allowed to migrate for 6 hours at 37° C. in a 6% CO2 incubator. After incubation, non-migrant cells were removed from the upper face of the Transwell membrane with a cotton swab and migrant cells, those attached to the lower face, were fixed in methanol and visualized with the HEMACOLOR® stain set (EM Diagnostic Systems, Gibbstown, N.J.). Migrating cells were counted in high-power fields (HPFs). HUVECs were suspended in media with the inhibitor for 30 minutes before placement in the chamber. Each determination shown in FIG. 16 represents the average of nine HPF measurements.
# [4] = tested on: MPs; test: MP tissue factor production (Factor VIIa-dependent Factor Xa formation); assay type: cell-based, human; conditions: 1 nM sample protein, 4 hours
# Experimental: Cells for the various cytokine assays described were prepared from acid citrate dextrose-treated blood of normal healthy volunteers. Human PMNs were isolated from the blood by centrifugation (700×g) over Histopaque 1077 and 1119 (Sigma). […] This procedure was repeated twice. Human MPs were isolated by centrifugation on Histopaque 1077 (Sigma). The mononuclear fraction was obtained, washed twice in Hanks' balanced salt solution, resuspended in RPMI-1640 medium (Sigma) containing 10% heat-inactivated fetal bovine serum (Sigma), plated in tissue culture flasks, and incubated in a 6% CO2 incubator at 37° C. for 1-2 hours (Kumagai et al., 1979, J. Immunol. Methods 29:17-25). Nonadherent cells were removed by washing the flasks three times with Hanks' balanced salt solution, and adherent cells were harvested by incubation with calcium-magnesium free phosphate-buffered saline containing 2 mM EDTA for 15 minutes at 4° C., followed by extensive washing.
# MP tissue factor production was examined following incubation of 10^4 MPs with 1 nM of sample protein for 4 hours. Tissue factor activity was then inferred from measurements of Factor VIIa-dependent Factor Xa formation (Wolfson et al., 1990 J. Chromatogr., 503:277-81). Each determination shown in FIG. 2 represents the mean of four measurements from at least three independent experiments.
molecule,measurement,setting,value
B1,concentration dependence of PMN migration,[1],bell-shaped concentration dependence
same,PMN chemotaxis (PMN migration),[1],did induce PMN migration
same,PMN chemotaxis (PMN migration),[1]; listed as human mini TyrRS,led to an induction of PMN migration
same,Kd,[2],8 nM
same,HUVEC chemotaxis,[3],stimulated induction of HUVEC chemotaxis
same,MP tissue factor production,[4],did not stimulate production
